Laboratory results from patent US20210230279A1 (University of California, published 2021).
Ends that are not written are not given here.

What was measured:
[1] = target: T1, human integrin αvβ8 on CHO cells (human, UniProt P06756 31-1048; P26012 43-769); assay: cell adhesion to coated peptide, crystal violet, signal above mock transfected cells (FIG. 25)
T1 construct: also called CHO cells expressing αvβ8; CHO lec cells stably transfected with αvβ8

[2] = target: T2, recombinant human integrin αvβ6 (human, UniProt P18564 22-707); assay: competition of RGD3 with 3G9 for binding to αvβ6 (sheet title: modest cross-competition); y axis 'Relative Inhibition of avb6 binding to TGFb3 peptide'; signal falls from about 1.0 only to about 0.55 at log 4
T2 construct: also called αvβ6 (R&D systems); αvβ6 receptor

[3] = target: T3, recombinant human integrin αvβ3 (human, UniProt P05106 27-718); assay: ELISA on coated recombinant human integrin; 0 = no apparent binding
T3 construct: Bought; also called αvβ3 (R&D systems)
T3 sequence (chain, as listed by the source limits assumed, chain 1 of 2): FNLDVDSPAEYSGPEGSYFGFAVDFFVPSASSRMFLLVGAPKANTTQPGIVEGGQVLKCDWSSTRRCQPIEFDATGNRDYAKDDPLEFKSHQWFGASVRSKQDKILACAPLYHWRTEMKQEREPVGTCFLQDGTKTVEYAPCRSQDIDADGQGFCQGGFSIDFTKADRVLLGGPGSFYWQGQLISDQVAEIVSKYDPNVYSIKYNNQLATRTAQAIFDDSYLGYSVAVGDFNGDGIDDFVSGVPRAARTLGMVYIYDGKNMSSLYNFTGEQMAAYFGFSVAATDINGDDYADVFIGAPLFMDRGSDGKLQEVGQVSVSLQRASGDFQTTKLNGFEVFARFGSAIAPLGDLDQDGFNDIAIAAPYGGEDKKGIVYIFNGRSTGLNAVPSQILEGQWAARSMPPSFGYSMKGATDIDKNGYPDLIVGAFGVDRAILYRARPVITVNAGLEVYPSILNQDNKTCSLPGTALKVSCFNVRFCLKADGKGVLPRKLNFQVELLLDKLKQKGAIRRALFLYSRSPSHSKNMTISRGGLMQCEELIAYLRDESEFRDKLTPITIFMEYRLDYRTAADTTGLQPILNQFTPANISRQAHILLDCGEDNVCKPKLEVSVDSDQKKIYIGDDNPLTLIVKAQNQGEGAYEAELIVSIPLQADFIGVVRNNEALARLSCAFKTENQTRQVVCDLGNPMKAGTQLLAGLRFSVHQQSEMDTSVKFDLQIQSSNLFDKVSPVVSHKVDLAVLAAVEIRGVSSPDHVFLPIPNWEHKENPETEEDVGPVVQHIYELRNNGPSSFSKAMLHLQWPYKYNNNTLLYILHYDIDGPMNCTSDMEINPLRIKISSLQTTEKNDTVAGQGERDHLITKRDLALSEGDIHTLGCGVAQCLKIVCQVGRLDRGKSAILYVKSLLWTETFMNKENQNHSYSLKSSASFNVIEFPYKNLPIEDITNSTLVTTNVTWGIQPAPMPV
T3 sequence (P05106 27-718 limits assumed, chain 2 of 2): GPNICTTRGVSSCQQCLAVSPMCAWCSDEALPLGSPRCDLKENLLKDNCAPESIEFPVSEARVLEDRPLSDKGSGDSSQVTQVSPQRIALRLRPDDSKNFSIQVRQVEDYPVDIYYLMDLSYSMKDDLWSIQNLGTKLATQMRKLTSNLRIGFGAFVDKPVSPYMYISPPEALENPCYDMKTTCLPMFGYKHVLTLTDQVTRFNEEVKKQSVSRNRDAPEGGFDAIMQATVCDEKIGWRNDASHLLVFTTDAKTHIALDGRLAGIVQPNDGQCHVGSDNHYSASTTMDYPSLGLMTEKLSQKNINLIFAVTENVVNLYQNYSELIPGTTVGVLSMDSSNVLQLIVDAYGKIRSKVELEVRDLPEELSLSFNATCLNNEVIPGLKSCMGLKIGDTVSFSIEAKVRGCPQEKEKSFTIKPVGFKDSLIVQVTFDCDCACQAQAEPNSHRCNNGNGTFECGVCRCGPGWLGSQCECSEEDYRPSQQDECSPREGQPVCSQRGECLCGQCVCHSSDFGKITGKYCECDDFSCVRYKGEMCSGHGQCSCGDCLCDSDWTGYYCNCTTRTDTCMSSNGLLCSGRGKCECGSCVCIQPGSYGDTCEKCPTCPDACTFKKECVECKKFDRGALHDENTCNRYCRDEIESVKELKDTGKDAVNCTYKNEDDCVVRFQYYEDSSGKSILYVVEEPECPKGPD
Excerpt: (§1) Binding was quantified by intensity as 0-4 (0 representing no apparent binding; 4 representing robust binding) and results normalized to expression.

[4] = target: T4, recombinant human integrin αvβ5 (human, UniProt P18084 24-719); assay: as above
T4 construct: Bought; also called αvβ5 (R&D systems)
Excerpt: as §1

[5] = target: T5, recombinant human integrin αvβ1 (human, UniProt P05556 21-728); assay: as above
T5 construct: Bought; also called αvβ1 (R&D systems)
T5 sequence (chain, as listed by the source limits assumed, chain 1 of 2): as the sequence (chain, as listed by the source limits assumed, chain 1 of 2) above
T5 sequence (P05556 21-728 limits assumed, chain 2 of 2): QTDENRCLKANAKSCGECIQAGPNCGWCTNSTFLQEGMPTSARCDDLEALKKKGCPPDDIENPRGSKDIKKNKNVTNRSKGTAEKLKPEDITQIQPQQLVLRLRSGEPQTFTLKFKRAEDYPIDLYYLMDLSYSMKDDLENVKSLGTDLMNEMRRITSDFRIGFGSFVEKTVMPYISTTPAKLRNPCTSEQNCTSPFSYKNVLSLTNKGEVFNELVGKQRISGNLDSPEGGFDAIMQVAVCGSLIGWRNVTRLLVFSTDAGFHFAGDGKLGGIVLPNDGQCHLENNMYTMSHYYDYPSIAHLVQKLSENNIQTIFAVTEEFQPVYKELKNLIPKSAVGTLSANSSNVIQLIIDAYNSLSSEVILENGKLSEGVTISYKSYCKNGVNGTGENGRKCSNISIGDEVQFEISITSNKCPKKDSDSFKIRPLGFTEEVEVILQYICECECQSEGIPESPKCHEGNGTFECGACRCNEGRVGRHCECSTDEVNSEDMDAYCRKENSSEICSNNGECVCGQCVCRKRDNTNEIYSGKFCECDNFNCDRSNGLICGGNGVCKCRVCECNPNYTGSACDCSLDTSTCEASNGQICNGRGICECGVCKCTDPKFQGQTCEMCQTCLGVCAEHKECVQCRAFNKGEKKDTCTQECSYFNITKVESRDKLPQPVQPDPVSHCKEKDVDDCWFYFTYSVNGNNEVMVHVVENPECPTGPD
Excerpt: as §1

[6] = target: T2, recombinant human integrin αvβ6; assay: ELISA, Mab coated at 5 ug/ml, receptor 0.5 µg/ml in Mg buffer (1 mM Ca++ and 1 mM Mg++), detected with biotinylated anti-αv 8B8
Description: (§2) Binding in EDTA containing buffer defines cation-dependence because EDTA binds to Ca⁺⁺ and Mg′. Magnesium cation buffers contains 1 mM Ca⁺⁺ and 1 mM Mg⁺⁺. Here, the results are relative to anti-av, clone 11D12V2. All antibodies were coated on ELISA plates at 5 μg/ml.

[7] = target: T6, recombinant human integrin αvβ8 (human, UniProt P06756 31-992; P26012 43-684); assay: as above
T6 construct: also called Human Integrin alpha V beta 8; purified recombinant αvβ8
T6 sequence (P06756 31-992 limits assumed, chain 1 of 2): as the sequence (chain, as listed by the source limits assumed, chain 1 of 2) above
T6 sequence (P26012 43-684 limits assumed, chain 2 of 2): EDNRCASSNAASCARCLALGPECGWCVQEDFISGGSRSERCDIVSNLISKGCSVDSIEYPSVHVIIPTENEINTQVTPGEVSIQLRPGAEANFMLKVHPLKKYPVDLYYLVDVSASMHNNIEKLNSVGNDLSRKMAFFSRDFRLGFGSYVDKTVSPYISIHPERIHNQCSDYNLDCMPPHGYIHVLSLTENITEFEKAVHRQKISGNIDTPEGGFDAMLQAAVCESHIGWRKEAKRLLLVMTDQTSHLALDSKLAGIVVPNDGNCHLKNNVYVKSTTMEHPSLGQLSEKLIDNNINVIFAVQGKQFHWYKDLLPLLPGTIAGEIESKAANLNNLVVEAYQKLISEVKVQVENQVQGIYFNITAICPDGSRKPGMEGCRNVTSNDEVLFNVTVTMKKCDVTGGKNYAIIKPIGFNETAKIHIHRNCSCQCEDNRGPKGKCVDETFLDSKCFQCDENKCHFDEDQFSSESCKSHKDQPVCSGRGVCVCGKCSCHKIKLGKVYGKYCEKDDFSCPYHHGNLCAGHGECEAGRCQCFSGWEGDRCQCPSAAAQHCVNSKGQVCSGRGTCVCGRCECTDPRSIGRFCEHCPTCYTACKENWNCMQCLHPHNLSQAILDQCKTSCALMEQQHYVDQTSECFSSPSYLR
Description: as §2

[8] = target: T2, recombinant human integrin αvβ6; assay: cell-based or functional assay
[9] = target: T6, recombinant human integrin αvβ8; assay: cell-based or functional assay
[10] = target: T6, recombinant human integrin αvβ8; assay: ELISA: integrin coated on plate, supernatant of transfected 293 cells at 1/10 dilution, anti-mouse IgG-HRP; score normalized to expression;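 note: scale runs from 0 (no apparent binding) to 4 (robust binding), with scores adjusted for clone protein expression as determined by a murine IgG ELISA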
Excerpt: as §1

[11] = target: T2, recombinant human integrin αvβ6; assay: blocking of adhesion (A590) of Cho cells expressing GARP/LTGFB1 to immobilized αvβ6; antibody concentration varied; unit taken from the axis log[Agonist], (ug/ml)
Excerpt: (§3) Here, Cho3.2.8.1 cells were transfected with GARP and LTGFB1.

[12] = target: T6, recombinant human integrin αvβ8; assay: blocking of adhesion (A590) of Cho cells expressing GARP/LTGFB1 to immobilized αvβ8; antibody concentration varied; unit taken from the axis log[Agonist], (ug/ml)
Excerpt: as §3

[13] = target: T2, recombinant human integrin αvβ6; assay: ELISA, Mab coated at 5 ug/ml, αvβ6 receptor 0.5 µg/ml, detected with biotinylated anti-αv 8B8; percent of binding to anti-αv clone 11D12V2
Description: as §2

[14] = target: T6, recombinant human integrin αvβ8; assay: Kinetic Exclusion Assay (KinExA), C6D4 as murine IgG2a
[15] = target: T7, truncated secreted form of αvβ8 fused in frame to alkaline phosphatase; assay: ELISA: inhibition of binding of secreted αvβ8-alkaline phosphatase to coated TGF-β3 RGD peptide (1 µg/ml), OD405; fitted value in the table under the graph; unit from the axis and paragraph 229
T7 construct: Printed: truncated secreted form; also called alkaline phosphatase (AP) αvβ8 fusion protein; secreted αvβ8

[16] = target: T3, recombinant human integrin αvβ3; assay: ELISA, integrin coated, rabbit IgG detected with anti-rabbit HRP; relative to anti-αv (8B8) control wells
Description: (§4) All integrins were coated on ELISA plates at 2 mg/ml, blocked with BSA, and antibodies were allowed to bind.

[17] = target: T4, recombinant human integrin αvβ5; assay: as above
Description: as §4

[18] = target: T5, recombinant human integrin αvβ1; assay: as above
Description: as §4

[19] = target: T2, recombinant human integrin αvβ6; assay: as above
Description: as §4

[20] = target: T6, recombinant human integrin αvβ8; assay: scFv yeast display selection from random mutation libraries of clones 29 and 44
[21] = target: recombinant αvβ8 ectodomain (Homo sapiens (Human), UniProt P06756 31-992; P26012 43-684); assay: ELISA, Mab coated at the given concentration, αvβ8 ectodomain 0.5 µg/ml, detected with biotinylated anti-αv 8B8 and SA-HRP; specific binding minus SV5 control
Excerpt: As a negative control, some wells were coated with anti-SV5 at the same concentrations. Non-specific binding sites were blocked with BSA.

B1: TGF-β3 RGD multiple antigen presenting peptide DDHGRGDLGRLK (peptide)
peptide: DDHGRGDLGRLK
modifications: also: multiple antigen presenting peptide on 8-lysine core (branched)
notes: Branched peptide on a lysine core; also called L-TGF-b3 peptide; TGFb3 peptide
binding result [1]: binds

B2: C6D4-RGD3 (antibody, V domains shown)
VH: QIQLLQSGPELKKPGETVKISCKASGYTFTDYSMHWVKQAPGKGLKWVARINTETGEPTFADDFRGRFAVSLETSASTAYLQINNLKNEDTATYFCAIFYYGRDSWGQGTTLTVSS
VL: DIVMTQSPSSLAVSAGEKVTMSCKSSQSLLGRGDLGRLKKNALAWYQQKPGQSPRLLIYWASTRESGVPDRFTGSGSGTDFTLTISSVQAEDLAVYYCKQSYNLLSFGAGTKLELKR
notes: also called CD64-RGD3; C6 / RGD3
LogEC50 [2]: 3.78 Log10 (ng/ml) | binding result [3]: no binding (tested: supernatant at 1/10 dilution) | binding result [4]: no binding (tested: supernatant at 1/10 dilution) | binding result [5]: no binding (tested: supernatant at 1/10 dilution) | Binding in Mg buffer relative to clone 68 (% compared with binding to anti-av clone 11D12V2) [6]: 120% | Binding in Mg buffer relative to clone 68 (% compared with binding to anti-av clone 11D12V2) [7]: 98% | EC50 of inhibition of TGF-β activation (TMLC luciferase reporter) of GARP/LTGFB1 Cho cells on immobilized αvβ6; unit from the axis [8]: 0.412 µg/mL | EC50 of inhibition of TGF-β activation (TMLC luciferase reporter) of GARP/LTGFB1 Cho cells on immobilized αvβ8; unit from the axis [9]: 0.854 µg/mL | binding intensity score (0-4) [10]: 4 score 0-4 | EC50 [11]: 0.479 µg/mL | EC50 [12]: 1.19 µg/mL

B3: C6D4 (composite antibody of C6 VH and D4 VK; murine IgG2a) (antibody, V domains shown)
VH: QIQLLQSGPELKKPGETVKISCKASGYTFTDYSMHWVKQAPGKGLKWVARINTETGEPTFADDFRGRFAVSLETSASTAYLQINNLKNEDTATYFCAIFYYGRDSWGQGTTLTVSS
VL: DIVMTQSPSSLAVSAGEKVTMSCKSSQSLLNSRTRKNYLAWYQQKPGQSPRLLIYWASTRESGVPDRFTGSGSGTDFTLTISSVQAEDLAVYYCKQSYNLLSFGAGTKLELKR
notes: also called C6D4 murine IgG2a; Mab C6D4
binding result [3]: no binding (tested: supernatant at 1/10 dilution) | binding result [4]: no binding (tested: supernatant at 1/10 dilution) | binding result [5]: no binding (tested: supernatant at 1/10 dilution) | Binding in Mg buffer relative to clone 68 (% compared with binding to anti-av clone 11D12V2) [7]: 103% | EC50 of inhibition of TGF-β activation (TMLC luciferase reporter) of GARP/LTGFB1 Cho cells on immobilized αvβ8; unit from the axis [9]: 1.04 µg/mL | binding result [13]: no binding (tested: 5 ug/ml (coated Mab)) | Kd [14]: 0.832 nM | IC50 [15]: 0.494 µg/mL | binding intensity score (0-4) [10]: 4 score 0-4 | EC50 [12]: 1.2 µg/mL

B4: C6D4-RGD3 as rabbit IgG (C6VH expressed with the RGD3 mutant Vk) (antibody, V domains shown)
VH: QIQLLQSGPELKKPGETVKISCKASGYTFTDYSMHWVKQAPGKGLKWVARINTETGEPTFADDFRGRFAVSLETSASTAYLQINNLKNEDTATYFCAIFYYGRDSWGQGTTLTVSS
VL: DIVMTQSPSSLAVSAGEKVTMSCKSSQSLLGRGDLGRLKKNALAWYQQKPGQSPRLLIYWASTRESGVPDRFTGSGSGTDFTLTISSVQAEDLAVYYCKQSYNLLSFGAGTKLELKR
notes: also called C6D4-RGD3 mutant
binding result [16]: no binding | binding result [17]: no binding | binding result [18]: no binding

B5: C6D4 as rabbit IgG (C6VH expressed with D4 Vk) (antibody, V domains shown)
VH: QIQLLQSGPELKKPGETVKISCKASGYTFTDYSMHWVKQAPGKGLKWVARINTETGEPTFADDFRGRFAVSLETSASTAYLQINNLKNEDTATYFCAIFYYGRDSWGQGTTLTVSS
VL: DIVMTQSPSSLAVSAGEKVTMSCKSSQSLLNSRTRKNYLAWYQQKPGQSPRLLIYWASTRESGVPDRFTGSGSGTDFTLTISSVQAEDLAVYYCKQSYNLLSFGAGTKLELKR
notes: also called wildtype C6D4
binding result [19]: no binding | binding result [16]: no binding | binding result [17]: no binding

B6: clone C6 (scFv, yeast display) (scFv, V domains shown)
VH: QIQLLQSGPELKKPGETVKISCKASGYTFTDYSMHWVKQAPGKGLKWVARINTETGEPTFADDFRGRFAVSLETSASTAYLQINNLKNEDTATYFCAIFYYGRDSWGQGTALTVSS
VL: DIVMSQSPSSLAVSAGEKVTMSCKSSQSLLNSRTRKNYLAWYQQKPGQSPRLLIYWASTRESGVPDRFTGSGSGTDFTLTISSVQAEDLAVYYCKQSYNLLTFGAGTKLELKA
notes: scFv on yeast; also called A5=C6
binding result [20]: binds

B7: Humanized C6D4-RGD3 (HuC6D4-RGD3) (antibody, V domains shown)
VH: QIQLVQSGAEVKKPGASVKISCKASGYTFTDYSMHWVRQAPGQGLEWVARINTETGEPTFADDFRGRFTVTLDTSTSTAYLEIRSLRSDDTAVYFCAIFYYGRDTWGQGTTLTVSS
VL: EIVMTQSPATLSVSPGERVTMSCKSSQSLLGRGDLGRLKKNALAWYQQKPGQAPRLLIYWASTRESGVPARFSGSGSGTEFTLTISSVQSEDFAVYYCKQSYNLLSFGQGTVLEIKR
notes: Frameworks and CH1 are human; hinge and CH2-3 are mouse; also called humanized RGD3
binding result [21]: binds
